Patent US20040102388

Experiments:
FVII-RKR = FVII-RKR (UniProt P08709)
FVII-RKRRKR = FVII-RKRRKR (UniProt P08709)
[1] = target: wild type FVII (human Factor VII) (UniProt P08709)
FVII-PRPSRKRR = FVII-PRPSRKRR (UniProt P08709)

## Factor Xa
FVII-RKR
  FXa activation: conversion of single-chain zymogen to two-chain material (reducing gel): the single-chain zymogen protein in all but FVII-INS was nearly completely converted to two-chain material
FVII-RKRRKR
  FXa activation: conversion of single-chain zymogen to two-chain material (reducing gel): the single-chain zymogen protein in all but FVII-INS was nearly completely converted to two-chain material
[1]
  FXa activation: conversion of single-chain zymogen to two-chain material (reducing gel): modified FVII, like wild type FVII, is autoactivated by (A) soluble Tissue factor (sTF) and (B) Factor Xa
FVII-PRPSRKRR
  FXa activation: conversion of single-chain zymogen to two-chain material (reducing gel): the single-chain zymogen protein in all but FVII-INS was nearly completely converted to two-chain material
  FXa concentration giving complete cleavage of zymogen: Addition of 1 µM FXa (i.e 50 fold higher than for the other FVIIa proteins) resulted in complete cleavage of zymogen FVII-INS

B1: FVII-PRPSRKRR (protein)
chain: ANAFLEELRPGSLERECKEEQCSFEEAREIFKDAERTKLFWISYSDGDQCASSPCQNGGSCKDQLQSYICFCLPAFEGRNCETHKDDQLICVNENGGCEQYCSDHTGTKRSCRCHEGYSLLADGVSCTPTVEYPCGKIPILEKRNASKPQGRPRPSRKRRIVGGKVCPKGECPWQVLLLVNGAQLCGGTLINTIWVVSAAHCFDKIKNWRNLIAVLGEHDLSEHDGDEQSRRVAQVIIPSTYVPGTTNHDIALLRLHQPVVLTDHVVPLCLPERTFSERTLAFVRFSLVSGWGQLLDRGATALELMVLNVPRLMTQDCLQQSRKVGDSPNITEYMFCAGYSDGSKDSCKGDSGGPHATHYRGTWYLTGIVSWGQGCATVGHFGVYTRVSQYIEWLQKLMRSEPRPGVLLRAPFP
Soluble Tissue factor
  autoactivation: cleavage of single-chain zymogen to two-chain FVIIa (reducing gel): all modified FVIIa contain single-chain material that can be cleaved

B2: FVII-RKRRKR (protein)
chain: ANAFLEELRPGSLERECKEEQCSFEEAREIFKDAERTKLFWISYSDGDQCASSPCQNGGSCKDQLQSYICFCLPAFEGRNCETHKDDQLICVNENGGCEQYCSDHTGTKRSCRCHEGYSLLADGVSCTPTVEYPCGKIPILEKRNASKPQGRRKRRKRRKRIVGGKVCPKGECPWQVLLLVNGAQLCGGTLINTIWVVSAAHCFDKIKNWRNLIAVLGEHDLSEHDGDEQSRRVAQVIIPSTYVPGTTNHDIALLRLHQPVVLTDHVVPLCLPERTFSERTLAFVRFSLVSGWGQLLDRGATALELMVLNVPRLMTQDCLQQSRKVGDSPNITEYMFCAGYSDGSKDSCKGDSGGPHATHYRGTWYLTGIVSWGQGCATVGHFGVYTRVSQYIEWLQKLMRSEPRPGVLLRAPFP
Soluble Tissue factor
  autoactivation: cleavage of single-chain zymogen to two-chain FVIIa (reducing gel): all modified FVIIa contain single-chain material that can be cleaved

B3: FVII-RKR (protein)
chain: ANAFLEELRPGSLERECKEEQCSFEEAREIFKDAERTKLFWISYSDGDQCASSPCQNGGSCKDQLQSYICFCLPAFEGRNCETHKDDQLICVNENGGCEQYCSDHTGTKRSCRCHEGYSLLADGVSCTPTVEYPCGKIPILEKRNASKPQGRRKRIVGGKVCPKGECPWQVLLLVNGAQLCGGTLINTIWVVSAAHCFDKIKNWRNLIAVLGEHDLSEHDGDEQSRRVAQVIIPSTYVPGTTNHDIALLRLHQPVVLTDHVVPLCLPERTFSERTLAFVRFSLVSGWGQLLDRGATALELMVLNVPRLMTQDCLQQSRKVGDSPNITEYMFCAGYSDGSKDSCKGDSGGPHATHYRGTWYLTGIVSWGQGCATVGHFGVYTRVSQYIEWLQKLMRSEPRPGVLLRAPFP
Soluble Tissue factor
  autoactivation: cleavage of single-chain zymogen to two-chain FVIIa (reducing gel): all modified FVIIa contain single-chain material that can be cleaved

B4: wild type FVII (human Factor VII) (protein)
chain: ANAFLEELRPGSLERECKEEQCSFEEAREIFKDAERTKLFWISYSDGDQCASSPCQNGGSCKDQLQSYICFCLPAFEGRNCETHKDDQLICVNENGGCEQYCSDHTGTKRSCRCHEGYSLLADGVSCTPTVEYPCGKIPILEKRNASKPQGRIVGGKVCPKGECPWQVLLLVNGAQLCGGTLINTIWVVSAAHCFDKIKNWRNLIAVLGEHDLSEHDGDEQSRRVAQVIIPSTYVPGTTNHDIALLRLHQPVVLTDHVVPLCLPERTFSERTLAFVRFSLVSGWGQLLDRGATALELMVLNVPRLMTQDCLQQSRKVGDSPNITEYMFCAGYSDGSKDSCKGDSGGPHATHYRGTWYLTGIVSWGQGCATVGHFGVYTRVSQYIEWLQKLMRSEPRPGVLLRAPFP
Soluble Tissue factor
  autoactivation: cleavage of single-chain zymogen to two-chain FVIIa (reducing gel): single-chain protein (zymogen) in the FVII or the FVIIa preparations was cleaved to yield a two-chain material (FVIIa)
